Biological target: T1, GST-FKH-FoxA2 (Rattus norvegicus (rat; cloned from genomic DNA)) (UniProt P32182)
T1 sequence (P32182 145-290, looked up): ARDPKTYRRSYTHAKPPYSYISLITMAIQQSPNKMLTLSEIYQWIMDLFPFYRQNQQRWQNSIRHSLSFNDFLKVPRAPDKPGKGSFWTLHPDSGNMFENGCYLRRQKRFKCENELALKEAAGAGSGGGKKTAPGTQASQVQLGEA
Test: competition EMSA
Conditions: 25 mM HEPES pH 7.6, 150 mM KCl, 0.2 mM EDTA, 0.2 mM EGTA, 10% glycerol, 1 mM DTT, 3 ug protein, 1 ng 32P-TTR probe, 2/5/20 ng competitor, on ice 15 min; 4% …

Going from “CAGTAAACTCTGCTGTGTGTACAGATAACATTAC (double strand) [non-site chr7:119551431]” to “CAGTAAGCCTCGCGTTGTTTGGTTAAGGGGCAGG (double strand) [FoxA BS chr1:7078701]”, the binding signal (EMSA score (TTR=1)) rises from 0.22 to 0.83.

Going from “CAGTAAGGTTATTATTATTTGTTTTATTTTGTTT (double strand) [FoxA BS chr10:75378448]” to “CAGTACCCCAGGATTTGTGGGCTGTGGGTGTGGC (double strand) [non-site chr7:44970992]”, the binding signal (EMSA score (TTR=1)) falls from 0.83 to -0.11.

Going from “CAGTACTAGATGTTTACTTTAAGGGACCAG (double strand) [FoxA BS chr9:107745824]” to “CAGTACTCATCCTGCTATTGACAGTCGGATATAT (double strand) [FoxA BS chr7:29476412]”, the binding signal (EMSA score (TTR=1)) falls from 1.3 to 0.4.

Going from “CAGTAGAGGTCTTCCTCTTTGCCCATGTTGTGGG (double strand) [non-site chr7:26648074]” to “CAGTAGCCCCTCCTGTGTTGTCTTCCAGTAGATG (double strand) [non-site chr7:59095749]”, the binding signal (EMSA score (TTR=1)) rises from -0.16 to 0.09.

Compared with “CAGTAGCGCCTGCAGTTTACCTTGGCTCCG (double strand) [non-site chr9:102865800]”, “CAGTAGGGTCAAGGTAGTTTGCATATCTTCCAAC (double strand) [non-site chr7:83767529]” is higher in binding signal (EMSA score (TTR=1)): 0.13 for the first, 0.24 for the second.

Going from “CAGTAGGTTTCTCTATTGACTCTATTGCCT (double strand) [FoxA BS chr11:45798706]” to “CAGTATGTGTTGTTGTTGACTTTAAGGTCG (double strand) [FoxA BS chr9:107420590]”, the binding signal (EMSA score (TTR=1)) rises from 0.49 to 0.93.

Going from “CAGTATTGGACATTGTTTATTTGTTTTGCC (double strand) [FoxA BS chr1:141375708]” to “CAGTATTTATTTGTATGTATTTTGAGACAG (double strand) [FoxA BS chr3:116606401]”, the binding signal (EMSA score (TTR=1)) falls from 1.21 to 0.38.

Going from “CAGTCACCGTTGTTTGTTCTGTGACAAATA (double strand) [FoxA BS chr19:56926814]” to “CAGTCAGCTCCCATGTTTACCAGGCCTTGA (double strand) [FoxA BS chr6:121311851]”, the binding signal (EMSA score (TTR=1)) falls from 0.68 to 0.57.

Going from “CAGTCAGTGGAAGGCTGTTAACTGTGCCTGCTGC (double strand) [non-site chr13:40870570]” to “CAGTCATATAGGCTCTGTTTGAACATTAATTAAC (double strand) [FoxA BS chr15:82621996 b]”, the binding signal (EMSA score (TTR=1)) rises from -0.02 to 0.31.

First: CAGTCCAGACTCGCTTGTTGACAGAGCTCAGGGC (double strand) [FoxA BS chr12:77880754 a]
Second: CAGTCCAGGGGACCTGTTTACCTTACATAG (double strand) [FoxA BS chr17:45901267]
The binding signal (EMSA score (TTR=1)) of the first is lower: 0.38 for the first, 0.7 for the second.

Going from “CAGTCCCGGGCCTGTTTGCTTTTCCATACA (double strand) [FoxA BS chr12:8003233]” to “CAGTCCCTATCTGTGTTTACAGCTGGTTTC (double strand) [non-site chr5:139643316]”, the binding signal (EMSA score (TTR=1)) falls from 0.5 to 0.18.

Compared with “CAGTCCCTTCCCTTATTTACATTCCCGAGA (double strand) [FoxA BS chr7:140707466 a]”, “CAGTCCGGGATTGGCTGTTTGTAATCTGCTCGAC (double strand) [non-site chr17:74394072]” is lower in binding signal (EMSA score (TTR=1)): 1.13 for the first, 0 for the second.

Going from “CAGTCCTGGCTTTCCTGCTTACCCAACAACCGCT (double strand) [non-site chr3:94456673 b]” to “CAGTCCTTGTGCTTATTTACATACCCCGCC (double strand) [FoxA BS chr19:12527263]”, the binding signal (EMSA score (TTR=1)) rises from 0.07 to 0.84.

Going from “CAGTCGTCTTCCCTGTGTGCTTACTATGCA (double strand) [non-site chr12:85340663 b]” to “CAGTCGTGACCTTTGTTGACTCGCGTCAGT (double strand) [FoxA BS chrX:17319260]”, the binding signal (EMSA score (TTR=1)) rises from 0.07 to 0.53.

First: CAGTCTCCCGGCCGGGGTTGACTCTCTCTGAGCT (double strand) [non-site chr8:87127281]
Second: CAGTCTCCTCCATTGTGTACACTCCCCCTC (double strand) [FoxA BS chr7:44717527]
The binding signal (EMSA score (TTR=1)) of the first is lower: 0.11 for the first, 0.49 for the second.

First: CAGTCTCTGAGTGACTGTTTTCTGTAATACCCAA (double strand) [non-site chr15:91019750]
Second: CAGTCTCTGCCCCTCTATTGGTCTAGCTCTCCAA (double strand) [non-site chr16:22806861]
The binding signal (EMSA score (TTR=1)) of the first is lower: 0.01 for the first, 0.06 for the second.

First: CAGTCTGAGAAACCTTGTTGATCTCAGGCAACCC (double strand) [non-site chr8:13025407 a]
Second: CAGTCTGCCCTGCTGTTTACCAGCTGGAGA (double strand) [FoxA BS chr3:94456673 a]
The binding signal (EMSA score (TTR=1)) of the first is lower: 0.07 for the first, 0.29 for the second.

Compared with “CAGTCTGCGGCGCCAGATTTACACAGCGCGAGGA (double strand) [FoxA BS chr7:15773405]”, “CAGTCTTGAGGCCTGTTTACCGTCCAGTTA (double strand) [FoxA BS chr19:44039737]” is higher in binding signal (EMSA score (TTR=1)): 0.25 for the first, 0.43 for the second.

Going from “CAGTGACAACCAATGTTGACTTAAAACCTT (double strand) [FoxA BS chr4:61847631]” to “CAGTGAGGCGGGGTGTTGACTCTTACGCCA (double strand) [FoxA BS chr8:112454327]”, the binding signal (EMSA score (TTR=1)) falls from 0.82 to 0.33.

First: CAGTGCAACAAGTTGTTTACACTCTTCATT (double strand) [FoxA BS chr6:34792983 a]
Second: CAGTGCGGCGCTGTGTTTACCTTCCGGGAG (double strand) [FoxA BS chr11:85168610]
The binding signal (EMSA score (TTR=1)) of the first is lower: 0.82 for the first, 1.08 for the second.

First: CAGTGCGTGCATTGGTGTTCGCTCAGAGCGGGAC (double strand) [non-site chr6:5446118]
Second: CAGTGCTAGATCCAGTTTTTACACAGAAAGTTTC (double strand) [non-site chr8:13025407 b]
The binding signal (EMSA score (TTR=1)) of the first is higher: 0 for the first, -0.06 for the second.

Compared with “CAGTGGAACCTCTGATGTTGACTTTCCCTTGATT (double strand) [FoxA BS chr15:82621996 a]”, “CAGTGGACCTTATTTACTTTCCTTAGCAAG (double strand) [FoxA BS chr12:85340663 a]” is higher in binding signal (EMSA score (TTR=1)): 0.38 for the first, 0.99 for the second.

Going from “CAGTGGATGCCTCTATTTGTTTAATCACAG (double strand) [FoxA BS chr9:122199103]” to “CAGTGGCATCCGACTGATTTACTGAGCTGGTTCC (double strand) [non-site chr7:140707466 b]”, the binding signal (EMSA score (TTR=1)) falls from 1.1 to 0.

First: CAGTGGGACCTGTCTTGTTGACCCATCACGTCAC (double strand) [FoxA BS chr17:32151628]
Second: CAGTGGTCACCCTTTGGTTTACCTTTTAGGAACA (double strand) [FoxA BS chr8:96902217 a]
The binding signal (EMSA score (TTR=1)) of the first is lower: 0.47 for the first, 0.52 for the second.

First: CAGTGTGAGTGTGTGTGTGTATACAGCGTGAGTC (double strand) [FoxA BS chr15:59478046]
Second: CAGTGTGTTCCTATGTGTACACAGTACTTG (double strand) [FoxA BS chr4:3604382]
The binding signal (EMSA score (TTR=1)) of the first is lower: 0.26 for the first, 0.91 for the second.

— paper PMC4234207
